The assay deals with T1, bacterially produced MPP2 PDZ-SH3-GK (MPP2 PSG module) (mouse).
T1 construct: source: E. coli Rosetta, purified (Ni-NTA, Superdex 75)
T1 sequence (Q9WV34 whole entry, looked up): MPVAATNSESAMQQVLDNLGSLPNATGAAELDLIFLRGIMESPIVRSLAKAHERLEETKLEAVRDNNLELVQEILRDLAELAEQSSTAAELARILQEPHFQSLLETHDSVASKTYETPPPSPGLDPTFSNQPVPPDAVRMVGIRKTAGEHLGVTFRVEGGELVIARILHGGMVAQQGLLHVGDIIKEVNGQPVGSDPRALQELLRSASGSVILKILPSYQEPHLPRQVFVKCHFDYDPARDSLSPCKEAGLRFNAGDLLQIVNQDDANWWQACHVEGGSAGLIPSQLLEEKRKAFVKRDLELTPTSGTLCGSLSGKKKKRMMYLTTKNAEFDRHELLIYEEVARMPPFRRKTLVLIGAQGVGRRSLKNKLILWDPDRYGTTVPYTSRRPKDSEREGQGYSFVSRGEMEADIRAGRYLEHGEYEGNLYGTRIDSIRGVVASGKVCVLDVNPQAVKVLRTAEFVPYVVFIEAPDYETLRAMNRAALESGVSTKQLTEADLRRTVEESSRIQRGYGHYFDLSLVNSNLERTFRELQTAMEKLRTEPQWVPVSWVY
Description: ITC; ITC200 at 25 °C; 200 mM NaCl, 20 mM Tris-HCl pH 7.5, 1 mM DTT; 350 μM mCherry-tagged peptide titrated into 55 μM MPP2 PSG module in the cell; single-site binding model. Conditions: both partners purified.

The molecule GGGGSGGGGSGGGGSNSEEKKEYFI (domain or fragment) [bacterially produced mCherry-tagged SynCAM1 peptide (C-terminus)] yielded a Kd of 3.1 ± 0.239 µM.

Source of the values: paper PMC5069480, “MPP2 is a postsynaptic MAGUK scaffold protein that links SynCAM1 cell adhesion molecules to core components of the postsynaptic density” (Scientific Reports, 2016).
